From US12310324B2, “Compositions and methods for minimizing nornicotine synthesis in tobacco” (North Carolina State University, priority 2010, dated 2025) come the findings set out here.

This data set relates to CYP82E10 nicotine demethylase. The data set is described as follows: Nicotine demethylase assay, yeast microsomal membranes with [14C]-nicotine, CYP82E10 and variants. It is filed as biochemical, tobacco. The arrangement: Activity of Mutant Enzyme: concentration or dose not given beside the values. The conditions noted are these: for Activity of Mutant Enzyme: relative to the wild type enzyme when expressed in yeast; for nicotine demethylase (enzyme) activity, result in words: [14C]-nicotine. From the text:
To determine whether CYP82E10 functions as a nicotine demethylase gene, its cDNA was cloned into the yeast expression vector pYeDP60 and transformed into yeast strain W(R). Strain W(R) is a yeast cell line that was engineered to overexpress the yeast NADPH-dependent P450 reductase, an enzyme that serves as the direct electron donor to P450s; this system greatly enhances the detection of foreign P450 enzyme activities that are expressed in yeast (Pompon et al., 1995). Nicotine demethylase assays were conducted by incubating yeast microsomal membrane preparations with [^14C]-nicotine, and resolving the products by thin layer chromatography as described in Siminszky et al. (2005).
The nucleotide and amino acid residues mutated in these plants are also highlighted in FIG. 1. Although no truncation mutations were observed among these individuals, in several cases, mutations were identified that altered an amino acid residue within a highly conserved region of the enzyme. To determine the effects of a particular mutation on CYP82E10 enzyme activity, site-directed mutagenesis was used to introduce the specific mutations corresponding to seven of the nine mutations shown in Table 2 into the CYP82E10 cDNA within the pYeDP60 yeast expression vector. Microsomal preparations from yeast strains expressing each of the seven CYP82E10 variants were assayed in vitro for nicotine demethylase activity using both non-saturating (2.45 μM) and saturating (50 μM) concentrations of [^14C]-nicotine.

B1: Plant 693: CYP82E10 mutant enzyme R417H (mutation G1250A) from plant 693 (protein, listed as Nicotiana tabacum)
chain: MVSPVEAIVGLVTLTLLFYFIRTKKSQKPSKPLPPKIPGGWPVIGHLFYFDDDSDDRPLARKLGDLADKYGPVFTFRLGLPLVLVVSSYEAIKDCFSTNDAIFSNRPAFLYGEYLGYNNAMLFLTKYGPYWRKNRKLVIQEVLCASRLEKLKHVRFGEIQTSIKNLYTRIDGNSSTINLTDWLEELNFGLIVKMIAGKNYESGKGDEQVERFRKAFKDFIILSMEFVLWDAFPIPLFKWVDFQGHVKAMKRTFKDIDSVFQNWLEEHVKKKEKMEVNAEGNEQDFIDVVLSKMSNEYLDEGYSRDTVIKATVFSLVLDAADTVALHMNWGMALLINNQHALKKAQEEIDKKVGKDRWVEESDIKDLVYLQTIVKEVLRLYPPGPLLVPHENVEDCVVSGYHIPKGTRLFANVMKLQHDPKLWSNPDKFDPERFFAADIDFRGQHYEFIPFGSGRRSCPGMTYAMQVEHLTIAHLIQGFNYKTPNDEPLDMKEGAGLTIRKVNPIEVVITPRLTPELY
modifications: CYP82E10 R417H Variant
With B1, the “Activity of Mutant Enzyme” value was found to be 100%. In addition, the “nicotine demethylase (enzyme) activity, result in words” value (“nicotine demethylase (enzyme) activity” for short) (yeast microsomes) is listed as “did not alter enzyme activity”.

B2: Plant 817: CYP82E10 mutant enzyme A410T (mutation G1228A) from plant 817 (protein, listed as Nicotiana tabacum)
chain: MVSPVEAIVGLVTLTLLFYFIRTKKSQKPSKPLPPKIPGGWPVIGHLFYFDDDSDDRPLARKLGDLADKYGPVFTFRLGLPLVLVVSSYEAIKDCFSTNDAIFSNRPAFLYGEYLGYNNAMLFLTKYGPYWRKNRKLVIQEVLCASRLEKLKHVRFGEIQTSIKNLYTRIDGNSSTINLTDWLEELNFGLIVKMIAGKNYESGKGDEQVERFRKAFKDFIILSMEFVLWDAFPIPLFKWVDFQGHVKAMKRTFKDIDSVFQNWLEEHVKKKEKMEVNAEGNEQDFIDVVLSKMSNEYLDEGYSRDTVIKATVFSLVLDAADTVALHMNWGMALLINNQHALKKAQEEIDKKVGKDRWVEESDIKDLVYLQTIVKEVLRLYPPGPLLVPHENVEDCVVSGYHIPKGTRLFTNVMKLQRDPKLWSNPDKFDPERFFAADIDFRGQHYEFIPFGSGRRSCPGMTYAMQVEHLTIAHLIQGFNYKTPNDEPLDMKEGAGLTIRKVNPIEVVITPRLTPELY
modifications: CYP82E10 A410T
B2: the “Activity of Mutant Enzyme” value is 100%. The “nicotine demethylase (enzyme) activity” value (yeast microsomes) is listed as “did not alter enzyme activity”.

B3: Plant 2476: CYP82E10 mutant enzyme G79S (mutation G235A) from EMS treated DH98-325-6 plant 2476 (protein, listed as Nicotiana tabacum)
chain: MVSPVEAIVGLVTLTLLFYFIRTKKSQKPSKPLPPKIPGGWPVIGHLFYFDDDSDDRPLARKLGDLADKYGPVFTFRLSLPLVLVVSSYEAIKDCFSTNDAIFSNRPAFLYGEYLGYNNAMLFLTKYGPYWRKNRKLVIQEVLCASRLEKLKHVRFGEIQTSIKNLYTRIDGNSSTINLTDWLEELNFGLIVKMIAGKNYESGKGDEQVERFRKAFKDFIILSMEFVLWDAFPIPLFKWVDFQGHVKAMKRTFKDIDSVFQNWLEEHVKKKEKMEVNAEGNEQDFIDVVLSKMSNEYLDEGYSRDTVIKATVFSLVLDAADTVALHMNWGMALLINNQHALKKAQEEIDKKVGKDRWVEESDIKDLVYLQTIVKEVLRLYPPGPLLVPHENVEDCVVSGYHIPKGTRLFANVMKLQRDPKLWSNPDKFDPERFFAADIDFRGQHYEFIPFGSGRRSCPGMTYAMQVEHLTIAHLIQGFNYKTPNDEPLDMKEGAGLTIRKVNPIEVVITPRLTPELY
modifications: CYP82E10 G79S Variant
For B3, the “loss of nicotine demethylase activity from mutation (knocked out)” value was 100% and the “Activity of Mutant Enzyme” value was “Not detected”. In addition, for the setting “yeast microsomes”, the “nicotine demethylase (enzyme) activity” value is recorded as “complete enzyme inactivation”.

B4: Plant 1035: CYP82E10 mutant enzyme A344T (mutation G1030A) from plant 1035 (protein, listed as Nicotiana tabacum)
chain: MVSPVEAIVGLVTLTLLFYFIRTKKSQKPSKPLPPKIPGGWPVIGHLFYFDDDSDDRPLARKLGDLADKYGPVFTFRLGLPLVLVVSSYEAIKDCFSTNDAIFSNRPAFLYGEYLGYNNAMLFLTKYGPYWRKNRKLVIQEVLCASRLEKLKHVRFGEIQTSIKNLYTRIDGNSSTINLTDWLEELNFGLIVKMIAGKNYESGKGDEQVERFRKAFKDFIILSMEFVLWDAFPIPLFKWVDFQGHVKAMKRTFKDIDSVFQNWLEEHVKKKEKMEVNAEGNEQDFIDVVLSKMSNEYLDEGYSRDTVIKATVFSLVLDAADTVALHMNWGMALLINNQHALKKTQEEIDKKVGKDRWVEESDIKDLVYLQTIVKEVLRLYPPGPLLVPHENVEDCVVSGYHIPKGTRLFANVMKLQRDPKLWSNPDKFDPERFFAADIDFRGQHYEFIPFGSGRRSCPGMTYAMQVEHLTIAHLIQGFNYKTPNDEPLDMKEGAGLTIRKVNPIEVVITPRLTPELY
modifications: CYP82E10 A344T Variant
As for B4, the “Activity of Mutant Enzyme” value is 100%. Under “yeast microsomes”, the “nicotine demethylase (enzyme) activity” value is listed as “did not alter enzyme activity”.

B5: Plant 1512: CYP82E10 mutant enzyme P107S (mutation C319T) from EMS treated DH98-325-6 plant 1512 (protein, listed as Nicotiana tabacum)
chain: MVSPVEAIVGLVTLTLLFYFIRTKKSQKPSKPLPPKIPGGWPVIGHLFYFDDDSDDRPLARKLGDLADKYGPVFTFRLGLPLVLVVSSYEAIKDCFSTNDAIFSNRSAFLYGEYLGYNNAMLFLTKYGPYWRKNRKLVIQEVLCASRLEKLKHVRFGEIQTSIKNLYTRIDGNSSTINLTDWLEELNFGLIVKMIAGKNYESGKGDEQVERFRKAFKDFIILSMEFVLWDAFPIPLFKWVDFQGHVKAMKRTFKDIDSVFQNWLEEHVKKKEKMEVNAEGNEQDFIDVVLSKMSNEYLDEGYSRDTVIKATVFSLVLDAADTVALHMNWGMALLINNQHALKKAQEEIDKKVGKDRWVEESDIKDLVYLQTIVKEVLRLYPPGPLLVPHENVEDCVVSGYHIPKGTRLFANVMKLQRDPKLWSNPDKFDPERFFAADIDFRGQHYEFIPFGSGRRSCPGMTYAMQVEHLTIAHLIQGFNYKTPNDEPLDMKEGAGLTIRKVNPIEVVITPRLTPELY
modifications: CYP82E10 P107S Variant
Consider B5, for which the “loss of nicotine demethylase activity from mutation (knocked out)” value was 100% and the “Activity of Mutant Enzyme” value is listed as “Not detected”. Further, for the setting “yeast microsomes”, the “nicotine demethylase (enzyme) activity” value is recorded as “complete enzyme inactivation”.

B6: Plant 1442: CYP82E10 mutant enzyme P419S (mutation C1255T) from plant 1442 (protein, listed as Nicotiana tabacum)
chain: MVSPVEAIVGLVTLTLLFYFIRTKKSQKPSKPLPPKIPGGWPVIGHLFYFDDDSDDRPLARKLGDLADKYGPVFTFRLGLPLVLVVSSYEAIKDCFSTNDAIFSNRPAFLYGEYLGYNNAMLFLTKYGPYWRKNRKLVIQEVLCASRLEKLKHVRFGEIQTSIKNLYTRIDGNSSTINLTDWLEELNFGLIVKMIAGKNYESGKGDEQVERFRKAFKDFIILSMEFVLWDAFPIPLFKWVDFQGHVKAMKRTFKDIDSVFQNWLEEHVKKKEKMEVNAEGNEQDFIDVVLSKMSNEYLDEGYSRDTVIKATVFSLVLDAADTVALHMNWGMALLINNQHALKKAQEEIDKKVGKDRWVEESDIKDLVYLQTIVKEVLRLYPPGPLLVPHENVEDCVVSGYHIPKGTRLFANVMKLQRDSKLWSNPDKFDPERFFAADIDFRGQHYEFIPFGSGRRSCPGMTYAMQVEHLTIAHLIQGFNYKTPNDEPLDMKEGAGLTIRKVNPIEVVITPRLTPELY
modifications: CYP82E10 P419S Variant
B6: the “nicotine demethylase activity relative to the wild-type CYP82E10 polypeptide” value is on record as “about 25%” and the “Activity of Mutant Enzyme” value is 25%. Moreover, the “reduction in activity compared to the wild type CYP82E10 enzyme” value (yeast microsomes, 2.45 μM and 50 μM [14C]-nicotine) worked out at 75%.
